Square brackets hold non-standard residues; d marks the D form. Ends that are not written are not given here. * marks the point of attachment. dimethylgly‑t‑butylgly‑cys‑gly = CN(C)CC(=O)N[C@H](C(=O)N[C@@H](CS)C(=O)NCC(=O)*)C(C)(C)C; Cyclopropanecarbonyl = O=C(C1CC1)*; Nle = CCCC[C@H](N)C(=O)O; For = O=C*
T1: N-formyl-methionyl-leucyl-phenylalanine (fMLF) receptor on elicited rat peritoneal neutrophils (rat, UniProt D4A7Q2 1-355)
T1 sequence: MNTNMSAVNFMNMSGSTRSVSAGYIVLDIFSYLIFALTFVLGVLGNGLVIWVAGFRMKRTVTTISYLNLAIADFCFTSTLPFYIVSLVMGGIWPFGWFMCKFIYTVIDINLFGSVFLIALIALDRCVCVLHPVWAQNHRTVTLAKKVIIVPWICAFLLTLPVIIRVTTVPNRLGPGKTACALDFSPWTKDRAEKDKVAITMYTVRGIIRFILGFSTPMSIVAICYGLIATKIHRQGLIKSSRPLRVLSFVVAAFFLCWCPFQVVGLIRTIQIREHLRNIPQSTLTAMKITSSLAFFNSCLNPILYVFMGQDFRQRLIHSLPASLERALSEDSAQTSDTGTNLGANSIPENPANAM

T2: N-formyl-methionyl-leucyl-phenylalanine (fMLF) receptor on human neutrophils (human, UniProt P21462 1-350)
T2 construct: whole, on cells; Native receptor on whole neutrophils from healthy volunteers; also called Human FPR; formyl peptide receptor
T2 sequence (looked up): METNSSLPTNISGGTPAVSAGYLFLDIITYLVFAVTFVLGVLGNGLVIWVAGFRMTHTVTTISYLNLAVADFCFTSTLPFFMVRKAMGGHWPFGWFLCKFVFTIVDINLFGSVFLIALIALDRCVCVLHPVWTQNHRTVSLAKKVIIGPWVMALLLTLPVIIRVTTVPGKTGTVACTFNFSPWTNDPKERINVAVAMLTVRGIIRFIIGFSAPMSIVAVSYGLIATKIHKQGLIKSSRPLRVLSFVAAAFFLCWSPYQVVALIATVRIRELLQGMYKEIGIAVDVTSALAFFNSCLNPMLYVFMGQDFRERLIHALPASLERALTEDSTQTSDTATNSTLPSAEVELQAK


Assays:
[1] = molecular target: N-formyl-methionyl-leucyl-phenylalanine (fMLF) receptor on elicited rat peritoneal neutrophils (rat) (UniProt D4A7Q2); assay: cell-based or functional assay
[2] = molecular target: N-formyl-methionyl-leucyl-phenylalanine (fMLF) receptor on elicited rat peritoneal neutrophils (rat) (UniProt D4A7Q2); assay: Scatchard transformation of the 3H-fMLF binding isotherm on elicited rat peritoneal neutrophils
[3] = molecular target: N-formyl-methionyl-leucyl-phenylalanine (fMLF) receptor on elicited rat peritoneal neutrophils (rat) (UniProt D4A7Q2); assay: competition with 6 nM 3H-fMLF for binding to elicited rat peritoneal neutrophils, 4 C, filter harvest
[4] = molecular target: N-formyl-methionyl-leucyl-phenylalanine (fMLF) receptor on elicited rat peritoneal neutrophils (rat) (UniProt D4A7Q2); assay: saturation binding of 3H-fMLF to elicited rat peritoneal neutrophils, one-site fit (Prism)
[5] = molecular target: N-formyl-methionyl-leucyl-phenylalanine (fMLF) receptor on human neutrophils (human) (UniProt P21462); assay: competition with 6 nM 3H-fMLF for binding to human neutrophils
[6] = molecular target: N-formyl-methionyl-leucyl-phenylalanine (fMLF) receptor on elicited rat peritoneal neutrophils (rat) (UniProt D4A7Q2); assay: Scatchard analysis of 3H-fMLF saturation binding to elicited rat peritoneal neutrophils
[7] = molecular target: T1, N-formyl-methionyl-leucyl-phenylalanine …; assay: cell-based or functional assay
[8] = molecular target: T1, N-formyl-methionyl-leucyl-phenylalanine …; assay: competition with 6 nM 3H-fMLF for binding to elicited rat peritoneal neutrophils, 4 C, filter harvest
Procedure: (§1) Neutrophils isolated by peritoneal lavage were washed twice with 1 mL of HBSS− (without calcium chloride, magnesium chloride and magnesium sulfate) and centrifuged for ten minutes at 2000 rpms following each wash. PMNs utilized in functional assays were centrifuged at 25° C. while those used in binding assays were centrifuged at 4° C. to prevent internalization. A cold H_2O RBC lysis was then performed with the addition of 9 mL of sterile ice-cold H_2O and 1 mL of phosphate buffered saline (PBS) solution containing 0.1 M phosphate buffer, 0.027 M KCl and 1.37 M NaCl following resuspension of the sample in 1 mL of HBSS−. Centrifugation was subsequently performed for ten minutes at 1600 rpms. White blood cell (WBC) differential stain containing saline, 2% acidic acid and phenol violet dye was used to identify the neutrophil population and trypan blue exclusion was used to determine viability of cells.
(§2) Total binding in the competition assays was assessed in the presence of 1.0 ×10^6 PMNs per sample while non-specific binding was determined in the absence of cells. Each condition was performed in quadruplicate.

[9] = molecular target: T1, N-formyl-methionyl-leucyl-phenylalanine …; assay: competition with 6 nM 3H-fMLF on elicited rat neutrophils
Procedure: as §1, §2

[10] = molecular target: T2, N-formyl-methionyl-leucyl-phenylalanine …; assay: competition with 6 nM 3H-fMLF for binding to human neutrophils

| Molecule | MPO release, % Control (1 uM) [1] [% control] | MPO release, % Control (10 uM) [1] [% control] | IC50 [8] [nM] | fold more potent than N-t-BocMLF [9] [fold] | further results |
| --- | --- | --- | --- | --- | --- |
| 2-acetamido-5-thiazolesulfonyl-NleLFK (peptide) | 118 | 176 |  |  |  |
| 2-methoxyacetyl-NleLFK (peptide) | 95 | 97.1 |  |  |  |
| 2-quinoxazoyl-NleLFK (peptide) | 117 | 130 |  |  | % Control MPO Release (10 uM capping group + 0.1 uM fMLF) [1]: 240 % control; % Control MPO release (1 uM capping group + 0.1 uM fMLF) [1]: 323 % control |
| 3-but-1-enoxycarbonyl-NleLFK (peptide) | 134 | 229 |  |  |  |
| N,N-diethylcarbamoyl-NleLFK (peptide) | 114 | 110 |  |  | % Control MPO Release (10 uM capping group + 0.1 uM fMLF) [1]: 250 % control; % Control MPO release (1 uM capping group + 0.1 uM fMLF) [1]: 283 % control |
| N,N-diphenylcarbamoyl-NleLFK (peptide) | 143 | 125 |  |  | % Control MPO Release (10 uM capping group + 0.1 uM fMLF) [1]: 186 % control; % Control MPO release (1 uM capping group + 0.1 uM fMLF) [1]: 322 % control |
| N-formyl-methionyl-leucyl-phenylalanine (peptide) |  |  |  |  | x-intercept of Scatchard transformation [2]: 34; IC50 [3]: 50 nM; Binding Sites/Cell (binding sites/cell) [4]: 40000; Kd [4]: 6.1 nM; EC50 of myeloperoxidase release from elicited rat PMNs [1]: 110 nM; IC50 [5]: 5 nM; Kd [6]: 6.4 nM; binding sites per cell (binding sites per cell) [6]: 41000 |
| N-phenyl-N-methylcarbamoyl-NleLFK (peptide) | 94.7 | 68 |  |  | % Control MPO Release (10 uM capping group + 0.1 uM fMLF) [1]: 121 % control; % Control MPO release (1 uM capping group + 0.1 uM fMLF) [1]: 171 % control |
| N-tert-butyloxycarbonylated-methionyl-leucyl-phenylalanine (peptide) |  |  |  |  | IC50 [3]: 9300 nM |
| adamantylcarbonyl-NleLFK (peptide) | 70.5 | 71.7 |  |  | % Control MPO Release (10 uM capping group + 0.1 uM fMLF) [1]: 129 % control; % Control MPO release (1 uM capping group + 0.1 uM fMLF) [1]: 132 % control |
| cyclopropylcarbonyl-NleLFK (peptide) | 108 | 91.8 |  |  |  |
| fluorenylmethylcarbonyl-NleLFK (peptide) | 84.1 | 59.9 |  |  | % Control MPO Release (10 uM capping group + 0.1 uM fMLF) [1]: 109 % control; % Control MPO release (1 uM capping group + 0.1 uM fMLF) [1]: 162 % control |
| furoyl-NleLFK (peptide) | 93 | 102 |  |  |  |
| phenylthioacetyl-NleLFK (peptide) | 139 | 120 |  |  |  |
| trans-cinnamoyl-NleLFK (peptide) | 133 | 196 |  |  |  |
| For-MLFK [N-formyl-methionyl-leucyl-phenylalanyl-lysine] |  |  |  |  | EC50 of myeloperoxidase release from elicited rat PMNs [7]: 140 nM |
| Cyclopropanecarbonyl-[Nle]LFWHK(dimethylgly‑t‑butylgly‑cys‑gly)G-OH (also: ReO (rhenium oxo) complex with Lys6 side-chain chelator, Rhenium complex as tested; also called ReORP553 17-04; RP553-17-04) [ReO-CyclopropylCONH-nleu-leu-phe-trp-his-lys(dimethylgly-t-butylgly-cys-gly)-gly-OH] |  |  | 1770 | ≥ 1.5 |  |
| Cyclopropanecarbonyl-[Nle]LFSEKG-OH (not fully specified (residue 6); printed as ReO-CyclopropylCONH-nleu-leu-phe-ser-glu-lys(dimethylgly-t-butylgly-cys-gly)-gly-OH; also: ReO (rhenium oxo) complex on the side-chain chelate, Rhenium complex as tested; also called ReORP553 17-02; RP553-17-02) [ReO-CyclopropylCONH-nleu-leu-phe-ser-glu-lys(dimethylgly-t-butylgly-cys-gly)-gly-OH] |  |  | 2310 | ≥ 1.5 |  |
| Cyclopropanecarbonyl-[Nle]LFSHK(dimethylgly‑t‑butylgly‑cys‑gly)G-OH (also: ReO (rhenium oxo) complex with Lys6 side-chain chelator, Rhenium complex as tested; also called ReORP553 17-05; RP553-17-05) [ReO-CyclopropylCONH-nleu-leu-phe-ser-his-lys(dimethylgly-t-butylgly-cys-gly)-gly-OH] |  |  | 1010 | ≥ 1.5 |  |
| Cyclopropanecarbonyl-[Nle]LFSKK(dimethylgly‑t‑butylgly‑cys‑gly)G-OH (also: ReO (rhenium oxo) complex with Lys6 side-chain chelator, Rhenium complex as tested; also called ReORP553 17-08; RP553-17-08) [ReO-CyclopropylCONH-nleu-leu-phe-ser-lys-lys(dimethylgly-t-butylgly-cys-gly)-gly-OH] |  |  | 4950 | ≥ 1.5 |  |
| Cyclopropanecarbonyl-[Nle]LFWEK(dimethylgly‑t‑butylgly‑cys‑gly)G-OH (also: ReO (rhenium oxo) complex with Lys6 side-chain chelator, Rhenium complex as tested; also called ReORP553 17-01; RP553-17-01) [ReO-CyclopropylCONH-nleu-leu-phe-trp-glu-lys(dimethylgly-t-butylgly-cys-gly)-gly-OH] |  |  | 730 | ≥ 1.5 | IC50 [10]: 140 nM; fold greater binding affinity than N-t-BocMLF [9]: ~12 fold; fold less binding affinity than fMLF [9]: ~15 fold |
| Cyclopropanecarbonyl-[Nle]LFWKK(dimethylgly‑t‑butylgly‑cys‑gly)G-OH (also: ReO (rhenium oxo) complex with Lys6 side-chain chelator, Rhenium complex as tested; also called ReORP553 17-07; RP553-17-07) [ReO-CyclopropylCONH-nleu-leu-phe-trp-lys-lys(dimethylgly-t-butylgly-cys-gly)-gly-OH] |  |  | 760 | ≥ 1.5 |  |
| Cyclopropanecarbonyl-[Nle]LFYHK(dimethylgly‑t‑butylgly‑cys‑gly)G-OH (also: ReO (rhenium oxo) complex with Lys6 side-chain chelator, Rhenium complex as tested; also called ReORP553 17-06; RP553-17-06) [ReO-CyclopropylCONH-nleu-leu-phe-tyr-his-lys(dimethylgly-t-butylgly-cys-gly)-gly-OH] |  |  | 1220 | ≥ 1.5 |  |
| Cyclopropanecarbonyl-[Nle]LFYKK(dimethylgly‑t‑butylgly‑cys‑gly)G-OH (also: ReO (rhenium oxo) complex with Lys6 side-chain chelator, Rhenium complex as tested; also called ReORP553 17-09; RP553-17-09) [ReO-CyclopropylCONH-nleu-leu-phe-tyr-lys-lys(dimethylgly-t-butylgly-cys-gly)-gly-OH] |  |  | 5930 | ≥ 1.5 |  |

Reference: patent US6872536 (BRACCO IMAGING S P A, dated 2005)
